Test [1] has as its target T1, human TIGIT (human, UniProt Q495A1 22-141).
T1 construct: Expressed in HEK-293 cells and secreted as soluble protein; also called hTIGIT; monomeric wild type human TIGIT; not shown: His tag (purified on Ni-NTA, called 'human TIGIT HIS')
T1 sequence: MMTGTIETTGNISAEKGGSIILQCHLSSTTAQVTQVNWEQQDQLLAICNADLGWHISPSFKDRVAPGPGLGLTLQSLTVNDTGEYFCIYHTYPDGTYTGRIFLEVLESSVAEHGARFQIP
Briefly: BLI (Octet), antibody captured on anti-human Fc sensors. The procedure:
(§1) To identify the epitope for MAB10 binding to human TIGIT, 18 alanine single point mutations were made. Proteins were expressed in HEK-293 cells, secreted as soluble protein, purified on Ni-NTA resin, and characterized by SDS-PAGE. Binding was assessed by Bio-Layer Interferometry (BLI) using the Octet platform. MAB10 was captured on anti-human Fc sensors, washed, and exposed to either monomeric wild type human TIGIT or to one of a selection of point mutants.
To identify the epitope for MAB2, MAB15, and MAB21 binding to human TIGIT, binding to 7 alanine single point mutations was assessed using BLI as described in the preceding paragraph.
(In general: BLI is a label-free optical method that tracks binding on a fibre tip over time.)

For test [2], the target named is T1, human TIGIT. Briefly: BLI (Octet), MAB10 captured on anti-human Fc sensors, monomeric wild type human TIGIT in solution. The procedure: as §1
Test [3] deals with T1, human TIGIT. As to the kind of experiment: complex formation, size exclusion chromatography and crystallisation. The method, then: The binding epitope of MAB10 was also identified through crystallographic studies. MAB10 Fab was complexed with human TIGIT, purified by size exclusion chromatography, and concentrated to 10 mg/ml. Crystals were grown out of 14% PEG4000, 0.1M MES pH 6, 10 mM β-nicotinamide adenine dinucleotide hydrate, 0.5% n-dodecyl-β-D-maltoside. X-ray data were collected at Argonne National Laboratories (GM/CA CAT 23ID-D) and processed using CCP4 (Collaborative Computational Project No. 4, Software for Macromolecular X-Ray Crystallography) and Phenix (Python-based Hierarchical ENvironment for Integrated Xtallography). TIGIT residues within a contact distance of 3.8 Å from the heavy and light chain were considered part of the binding epitope and include T55, Q56, L65, D72, L73, H76, I77, S78, P79 and H111.
On the technique in general: SEC sorts molecules by how far they enter the pores of the column.

The results in this text go back to patent US20200095324A1 (POTENZA THERAPEUTICS, published 2020).

B1: MAB2 (antibody, human IgG4 S228P, kappa, V domains shown)
VH: QLQLQESGPGLVKPSETLSLTCTVSGGSISSSKYYWGWIRQPPGKGLEWIGSIYYSGSTFYNPSLKSRVTISVDTSKNQFSLKLSSVTAADTAVYYCARDANYYGSAWAFDPWGQGTLVTVSS
VL: EIVLTQSPATLSLSPGERATLSCRASQSVSSYLAWYQQKPGQAPRLLIYDASNRATGIPARFSGSGSGTDFTLTISSLEPEDFAVYYCQQHFNLPTFGGGTKVEIKR
notes: also called MAB2-IgG4
Turning to B1, in the test with human TIGIT [1], the binding result is “binds”.

B2: MAB15 (antibody, human IgG4 S228P, kappa, V domains shown)
VH: QVQLVQSGAEVKKPGASVKVSCKASGYTFREYYMHWVRQAPGQGLEWMGIINPSIGLTSYARKFQGRVTMTRDTSTSTVYMELSSLRSEDTAVYYCARGGRTTWIGAFDIWGQGTMVTVSS
VL: EIVMTQSPATLSVSPGERATLSCRASQSVSSNLAWYQQKPGQAPRLLIYGASTRATGIPARFSGSGSGTEFTLTISSLQSEDFAVYYCQQYVVWPPLTFGGGTKVEIKR
notes: also called MAB15-IgG4
Consider B2, for which the binding result in the test with human TIGIT [1] is “binds”.

B3: MAB21 (antibody, human IgG4 S228P, kappa, V domains shown)
VH: QVQLVQSGAEVKKPGASVKVSCKASGYTFTSHYMGWVRQAPGQGLEWMGIINPSMGATSYTQKFRGRVTMTRDTSTSTVYMELSSLRSEDTAVYYCARLHVSGSYYPAYLDYWGQGTMVTVSS
VL: EIVMTQSPATLSVSPGERATLSCRASQSVSSNLAWYQQKPGQAPRHLIYGASTRATGIPARFSGSGSGTEFTLTISSLQSEDFAVYYCQQYIVFPWTFGGGTKVEIKR
notes: also called MAB21-IgG4
For B3, the binding result with human TIGIT [1] was “binds”.

B4: MAB10 (antibody, human IgG4 S228P, kappa, V domains shown)
VH: QVQLQESGPGLVKPSQTLSLTCTVSGGSIESGLYYWGWIRQPPGKGLEWIGSIYYSGSTYYNPSLKSRATISVDTSKNQFSLKLSSVTAADTAVYYCARDGVLALNKRSFDIWGQGTMVTVSS
VL: EIVLTQSPGTLSLSPGERATLSCRASQSVSSSYLAWYQQKPGQAPRLLIYGASSRATGIPDRFSGSGSGTDFTLTISRLEPEDFAVYYCQQHTVRPPLTFGGGTKVEIKR
notes: also called MAB10-IgG4; anti-TIGIT antibody MAB10
As to B4, in the test with human TIGIT [2], the binding result is recorded as “binds”.

B5: MAB10 Fab (Fab, V domains shown)
VH: B4 VH
VL: EIVLTQSPGTLSLSPGERATLSCRASQSVSSSYLAWYQQKPGQAPRLLIYGASSRATGIPDRFSGSGSGTDFTLTISRLEPEDFAVYYCQQHTVRPPLTFGGGTKVEIK
notes: Fab of MAB10 used for crystallography
As for B5, the binding result with human TIGIT [3] was “binds”.
